Assay results taken from PMC12363406, “Human IgE monoclonal antibodies define two unusual epitopes trapping dog allergen Can f 1 in different conformations” (Protein Science : A Publication of the Protein Society, 2025).

B1: human IgE monoclonal antibody 12F3 (antibody, V domains shown)
VH: QVQLVQSGAEVQKPGSSVKVSCKASGGTFSRYPLIWVRQTPGQGLEWMGGIFPVIGRTNYAEKFQGRVTITADESTSTAYMELNSLTSEDTAVYYCARLDTYEILGYGTDVWGQGTTVTVSS
VL: EIVLTQSPATLSLSPGERATLSCRASESVSSSVAWYQQKFGQAPRLLIYDASNRATGIPARFSGSGSGTDFTLTISSLEPEDFAVYYCQLRSNWPPLTFGGGTKVQIK
notes: variable region as the heavy chain of m5 (PDB 9NPI); as the light chain of m5 (PDB 9NPI); Human IgE; details of isolation, production and purification are in Supplementary material; also called hIgE mAb 12F3; IgE mAb 12F3; source: B cell hybridomas from allergic subjects; copies: 2 + 2
B2: human IgE monoclonal antibody 1J11 (antibody, V domains shown)
VH: QVQLVESGGGVVQPGSSLRLSCAVSGFTVRSYGMHWVRQAPGKGLEWVALILFDGTTKHYADSVKGRFTISRDNSKDTLYLQMTSLGAEDTAMYYCVRDFNQFVKRFVDGPAFDLWGQGTRVTVSS
VL: SYELTQPPSVSVSPGQTANITCSGDKLGDKFTSWYQQRPGQSPVLVIYQDIERPSGIPERFSGSNSGNTATLTISGTQALDEADYYCQAWDTSTVVFGGGTRLTVL
notes: variable region as the heavy chain of m4 (PDB 8VQF); as the light chain of m4 (PDB 8VQF); Human IgE; details of isolation, production and purification are in Supplementary material; also called hIgE mAb 1J11; IgE mAb 1J11; source: B cell hybridomas from allergic subjects; copies: 2 + 2

Biological target: T1, natural Can f 1 (Canis lupus familiaris (dog))
T1 construct: Can f 1, major dog allergen, lipocalin, Canis familiaris; isolated from the natural source; model in the complex with 1J11 Fab starts at Ala5; numbers count on: the mature protein; Natural preparation; also called nCan f 1
T1 sequence (chain, as listed by the source): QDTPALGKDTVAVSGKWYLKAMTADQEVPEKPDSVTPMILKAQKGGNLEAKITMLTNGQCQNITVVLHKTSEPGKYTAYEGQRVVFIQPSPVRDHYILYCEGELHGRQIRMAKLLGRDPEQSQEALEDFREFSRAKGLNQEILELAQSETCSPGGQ
Experiment: SPR; localized surface plasmon resonance (LSPR) on an OpenSPR (Nicoya Lifesciences)
Conditions: both partners purified

Row | Binder | Kd
1 | B1 | 3.6 ± 1.3 nM
2 | B2 | 0.2 ± 0.1 nM
